US11130794B2, “Bifunctional compounds” (Novo Nordisk A/S, priority 2017, dated 2021)

Target: T1, hPCSK9 (Homo sapiens, UniProt Q8NBP7)
T1 construct: purchased Sino Biologicals, China
Experiment: C6 hPCSK9 challenge model, LDL-R expression in mouse liver (Western blot)
Type: in vivo
Conditions: healthy control 100%, hPCSK9 alone 0%
Description: Sixty minutes after the injection of hPCSK9, the animals are anaesthetised in isoflurane and euthanised by cervical dislocation. The liver is then quickly excised and snapfrozen in liquid nitrogen. The livers are kept at −80° C. until analysis.
The proteins are transferred to nitrocellulose membranes (iBlot 2 NC Regular stacks, novex #IB23001) according to manufacturer's instructions (Life Technology). Equal protein transfer is confirmed by Ponceau S (Sigma, P7170) staining of the membranes and the membranes are further blocked in blocking buffer (TBS-T, 2% Tween). […] Quantitative analysis of chemiluminescent signals from Western blots is done with MultiGauge software (Fujifilm).
The LDL-R expression levels were measured by Western Blot, and the expression levels compared.

T1 sequence (Q8NBP7 153-692): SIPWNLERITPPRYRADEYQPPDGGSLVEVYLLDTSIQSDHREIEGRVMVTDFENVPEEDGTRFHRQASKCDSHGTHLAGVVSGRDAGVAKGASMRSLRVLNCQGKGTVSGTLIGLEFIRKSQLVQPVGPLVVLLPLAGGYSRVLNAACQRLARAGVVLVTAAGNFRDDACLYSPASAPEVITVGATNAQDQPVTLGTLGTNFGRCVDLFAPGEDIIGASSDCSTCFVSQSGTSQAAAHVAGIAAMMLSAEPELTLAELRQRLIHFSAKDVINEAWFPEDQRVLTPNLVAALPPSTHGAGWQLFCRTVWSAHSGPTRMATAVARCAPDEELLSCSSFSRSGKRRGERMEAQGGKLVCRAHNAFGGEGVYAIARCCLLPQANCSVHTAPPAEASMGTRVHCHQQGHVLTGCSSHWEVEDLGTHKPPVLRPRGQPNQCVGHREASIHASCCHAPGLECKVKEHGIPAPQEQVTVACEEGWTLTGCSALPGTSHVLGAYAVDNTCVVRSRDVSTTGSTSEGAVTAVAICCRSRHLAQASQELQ

With “Alirocumab: anti-PCSK9 antibody, control molecule in the hPCSK9 challenge model” the “Percentage of baseline (%) Mean ± SEM” value (compound 30 nmol/kg) was 100 ± 13% and the “Percentage of baseline (%)” value (inhibitor 22 nmol/kg) was 157%.
